Series [1] deals with T1, Cas3 wild type (Escherichia coli K-12 MG1655, UniProt P38036 1-888).
T1 sequence: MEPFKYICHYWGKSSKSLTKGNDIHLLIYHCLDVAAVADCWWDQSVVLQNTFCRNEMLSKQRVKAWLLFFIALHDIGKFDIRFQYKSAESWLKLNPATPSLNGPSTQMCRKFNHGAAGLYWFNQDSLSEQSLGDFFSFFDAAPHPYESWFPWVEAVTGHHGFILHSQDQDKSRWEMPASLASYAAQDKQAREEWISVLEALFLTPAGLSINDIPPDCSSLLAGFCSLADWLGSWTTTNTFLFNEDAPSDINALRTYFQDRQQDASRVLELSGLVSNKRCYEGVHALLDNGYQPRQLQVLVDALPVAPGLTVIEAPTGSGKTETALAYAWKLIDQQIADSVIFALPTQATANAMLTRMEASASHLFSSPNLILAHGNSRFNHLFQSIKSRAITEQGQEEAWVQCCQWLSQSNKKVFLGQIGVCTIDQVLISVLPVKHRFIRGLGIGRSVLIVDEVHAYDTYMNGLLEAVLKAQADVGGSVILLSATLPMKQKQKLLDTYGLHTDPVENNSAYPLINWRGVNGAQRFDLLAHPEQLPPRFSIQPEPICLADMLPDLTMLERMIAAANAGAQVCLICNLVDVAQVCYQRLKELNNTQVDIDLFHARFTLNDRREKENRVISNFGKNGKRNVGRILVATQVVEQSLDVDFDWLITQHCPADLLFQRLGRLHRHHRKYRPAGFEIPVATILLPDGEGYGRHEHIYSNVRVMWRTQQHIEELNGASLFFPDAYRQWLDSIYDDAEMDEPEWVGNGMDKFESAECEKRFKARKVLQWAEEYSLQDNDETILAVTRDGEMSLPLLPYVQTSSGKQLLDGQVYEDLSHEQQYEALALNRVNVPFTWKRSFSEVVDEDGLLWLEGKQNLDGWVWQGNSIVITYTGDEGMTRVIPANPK
Description: EMSA; EMSA: 20 nM fork DNA, 50 mM Tris-HCl pH 7.5, 100 mM NaCl, 0.1 mg/mL BSA, 20 mM DTT, room temperature, 1 h. Particulars: protein: recombinant; tags: (His)6-MBP N-terminal (pCas3); a His6-only construct (pAH4) also exists; label: 5'-Cy5 on strand 1 (MW12); fork 1:2; as printed strand 1 nt 2-25 pair with strand 2 nt 27-50. (In general: A gel shift assay detects complexes by their altered migration in electrophoresis.)

Series [2] concerns the target T2, Cas3W406A (Escherichia coli K-12 MG1655, UniProt P38036 1-888, W406A).
T2 sequence: T1 sequence with W406A
Description: EMSA; not more stable or efficient than wild type; EMSA: 20 nM fork DNA, 50 mM Tris-HCl pH 7.5, 100 mM NaCl, 0.1 mg/mL BSA, 20 mM DTT, room temperature, 1 h. Particulars: protein: recombinant; tags: (His)6-MBP or His6 (pIIB39 is the His6 pAH4 version); label: 5'-Cy5 on strand 1 (MW12); fork 1:2; as printed strand 1 nt 2-25 pair with strand 2 nt 27-50.

Residue numbers refer to the chain shown, from its start.

Experimental findings from PMC8001533, “A Tryptophan ‘Gate’ in the CRISPR-Cas3 Nuclease Controls ssDNA Entry into the Nuclease Site, That When Removed Results in Nuclease Hyperactivity” are described below.

B1: DNA fork MW12/MW14 (mixed)
DNA 1: GTCGGATCCTCTAGACAGCTCCATGATCACTGGCACTGGTAGAATTCGGC
DNA 2: CAACGTCATAGACGATTACATTGCTACATGGAGCTGTCTAGAGGATCCGA
Consider B1, for which the binding result in series [1] and in series [2] was “binds” throughout.
